Values quoted from earlier work as cited in paper PMC2996873.

Molecular target: RANTES (Homo sapiens) (UniProt P13501)
Chain of UniProt P13501 (P13501 27-91): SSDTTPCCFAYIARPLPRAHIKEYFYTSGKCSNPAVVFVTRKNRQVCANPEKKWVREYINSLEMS

Kd: 460 nM
Substance: CCR1 (from UniProt P32246)
